Assay results from patent publication US20110008344A1 (THOMAS JEFFERSON UNIVERSITY, published 2011).
Where two headings read alike, the source gives them in different places.

Key:
[1] = target: T1, recombinant 50 kD C-terminal BoNT/A domain (HC50A) (Clostridium botulinum, UniProt P0DPI1 861-1296)
[2] = target: T1, recombinant 50 kD C-terminal BoNT/A …; assay: KinExA, solution phase
[3] = target: T1, recombinant 50 kD C-terminal BoNT/A …; assay: KinExA Direct Kinetics method, […]; KinExA, solution phase
[4] = target: T1, recombinant 50 kD C-terminal BoNT/A …; assay: SPR (Biacore 3000), 13A immobilized on CM5 chip, HC50A as analyte

B1: botulinum neurotoxin 13A antibody (human monoclonal antibody produced by hybridoma 13A, ATCC PTA-8871) (antibody, V domains shown)
VH: EVQLVESGGGLVQPGRSLRLSCTASGFTFGDSAMSWVRQAPGKGLEWVGFIRGKPYGGKPEYAASVKGRFTISRDDSKSIAYLQMNSLKTEDTAVYYCTAGMTTVTIYDYWGQGTLVTVSS
VL: QPLSVSVALGQTAGITCEGNNIGSKNVHWYQQKPGQAPVLVIYRDSNRPSGIPERFSGFNSGNTATLTISRVQAGDEADYYCQVWDSSTGVFGGGTELTVLG
B1 was tested, and the Kd [1] was 0.052 nM, the Kd [2] was 0.097 nM and the kon [3] was 7.2e+06 M⁻¹ s⁻¹. For the same binder, the kon [4] was 1.7e+07 M⁻¹ s⁻¹.
